Values joined by “and” are separate entries in the source; they are usually repeats but may differ in a detail not shown here. Equal values may be shown once. Read-outs that look alike come from different tables or passages of the source. Numbered stars: 1 amine (or outer) side, 2 acyl side, 3 side chain; on linkers, the order of the positions; unused ones are H or OH. Bridge positions count the residues as written; N and C are the ends. Square brackets hold non-standard residues; d marks the D form. Peptide text beside a SMILES is read from it. X2 = O=C(O)CCCCCCCCCCCCCCCCCCC(=O)N[C@@H](CCCCNC(=O)CCOCCOCCNC(=O)CCOCCOCCNC(=O)CCC(=O)N(CCNC(=O)C[*:1])CCNC(=O)C[*:2])C(=O)O; Aib = CC(C)(N)C(=O)O
Key:
human GIPR = molecular target: T1, human GIPR (Homo sapiens, UniProt P48546); assay: In vitro receptor activation reporter assay (CRE-Luc, HEK293-GIPR-CRE cells; receptor-mediated cAMP synthesis); type: cell-based; conditions: unnumbered table
T1 construct: expressed in transfected cells; host or cells: HEK293 (CRE-HEK293, HEK293-GIPR-CRE)
T1 sequence (P48546 22-466): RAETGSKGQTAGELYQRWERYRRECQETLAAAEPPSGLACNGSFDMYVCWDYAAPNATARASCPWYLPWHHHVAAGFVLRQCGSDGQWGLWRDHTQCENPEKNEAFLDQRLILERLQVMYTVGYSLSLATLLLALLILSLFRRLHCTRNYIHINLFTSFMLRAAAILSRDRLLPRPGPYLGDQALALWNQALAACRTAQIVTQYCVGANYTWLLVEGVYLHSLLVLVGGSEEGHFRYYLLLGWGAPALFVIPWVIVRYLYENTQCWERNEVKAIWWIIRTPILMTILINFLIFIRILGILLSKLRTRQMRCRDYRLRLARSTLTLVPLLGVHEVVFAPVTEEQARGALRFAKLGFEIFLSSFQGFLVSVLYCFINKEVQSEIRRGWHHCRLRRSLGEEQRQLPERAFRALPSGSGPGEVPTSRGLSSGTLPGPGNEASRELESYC

[1] = Pharmacokinetics in CD-1 mouse, I.V. or S.C. 1 mg/kg, plasma concentration by LC-MS; conditions: individual animals; for AUC(0-inf): AUCINF_pred; for MRT inf / MRT last: mouse, in vivo; for MRT inf: MRTINF_pred; for MRT last: MRTlast;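 as to all read-outs here: peptide levels in plasma quantified by LC-MS across multiple sampling times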
Experimental: The peptide plasma concentration at various time points was determined using LC-MS.

[2] = average of runs, read-out: EC50 GIPR average
[3] = Table 15, I.V. 1 mg/kg, 1 mg/kg
[4] = iv, 1 mg/kg, Table 15, I.V. 1 mg/kg

## CC[C@H](C)[C@H](NC(=O)[C@H](CC(C)C)NC(=O)[C@H](Cc1c[nH]c2ccccc12)NC(=O)[C@H](CC(N)=O)NC(=O)[C@@H](NC(=O)[C@H](Cc1ccccc1)NC(=O)[C@@H]1CSCC(=O)NCCN(C(=O)CCC(=O)NCCOCCOCCC(=O)NCCOCCOCCC(=O)NCCCC[C@H](NC(=O)CCCCCCCCCCCCCCCCCCC(=O)O)C(=O)O)CCNC(=O)CSC[C@H](NC(=O)[C@H](Cc2ccc(O)cc2)NC(=O)[C@@H](NC(=O)[C@H](CO)NC(=O)[C@H](Cc2ccc(O)cc2)NC(=O)[C@H](CC(=O)O)NC(=O)[C@H](CO)NC(=O)[C@@H](NC(=O)[C@H](Cc2ccc(O)cc2)NC(=O)[C@@H](NC(=O)CNC(=O)[C@H](CCC(=O)O)NC(=O)C(C)(C)NC(=O)[C@@H](N)Cc2ccc(O)cc2)[C@@H](C)O)[C@@H](C)O)[C@@H](C)CC)C(=O)N[C@@H](CC(=O)O)C(=O)N[C@@H](CCCCN)C(=O)N[C@@H](CCC(N)=O)C(=O)N[C@@H](C)C(=O)N[C@@H](C)C(=O)NC(C)(C)C(=O)N1)C(C)C)C(=O)N[C@@H](C)C(=O)NCC(=O)NCC(=O)N1CCC[C@H]1C(=O)N[C@@H](CO)C(=O)N[C@@H](CO)C(=O)NCC(=O)N[C@@H](C)C(=O)N1CCC[C@H]1C(=O)N1CCC[C@H]1C(=O)N1CCC[C@H]1C(=O)N[C@@H](CO)C(N)=O [6Y, 27I, C(14-21)-C20L5A, YAibEGT-YTSDY-SIYXD-KQAAAib-XFVNW-LIAGG-PSSGA-PPPS-NH2 (where each X is C) (SEQ ID NO: 58)] (H-Y[Aib]EGTYTSDYSIYCDKQAA[Aib]CFVNWLIAGGPSSGAPPPS-NH2; linker 14-21 via X2)
Human GIPR; [2]
  EC50: 0.56 nM
Human GIPR; run 03/26, read-out: EC50 GIPR 03/26
  EC50: 0.6 nM

## CC[C@H](C)[C@H](NC(=O)[C@H](CC(C)C)NC(=O)[C@H](Cc1c[nH]c2ccccc12)NC(=O)[C@@H]1CSCC(=O)NCCN(C(=O)CCC(=O)NCCOCCOCCC(=O)NCCOCCOCCC(=O)NCCCC[C@H](NC(=O)CCCCCCCCCCCCCCCCCCC(=O)O)C(=O)O)CCNC(=O)CSC[C@H](NC(=O)[C@H](CCCCN)NC(=O)[C@H](CC(=O)O)NC(=O)[C@H](CC(C)C)NC(=O)[C@H](Cc2ccc(O)cc2)NC(=O)[C@@H](NC(=O)[C@H](CO)NC(=O)[C@H](Cc2ccc(O)cc2)NC(=O)[C@H](CC(=O)O)NC(=O)[C@H](CO)NC(=O)[C@@H](NC(=O)[C@H](Cc2ccc(O)cc2)NC(=O)[C@@H](NC(=O)CNC(=O)[C@H](CCC(=O)O)NC(=O)C(C)(C)NC(=O)[C@@H](N)Cc2ccc(O)cc2)[C@@H](C)O)[C@@H](C)O)[C@@H](C)CC)C(=O)N[C@@H](C)C(=O)N[C@@H](C)C(=O)NC(C)(C)C(=O)N[C@@H](CCC(=O)O)C(=O)N[C@@H](Cc2ccccc2)C(=O)N[C@@H](C(C)C)C(=O)N1)C(=O)N[C@@H](C)C(=O)NCC(=O)NCC(=O)N1CCC[C@H]1C(=O)N[C@@H](CO)C(=O)N[C@@H](CO)C(=O)NCC(=O)N[C@@H](C)C(=O)N1CCC[C@H]1C(=O)N1CCC[C@H]1C(=O)N1CCC[C@H]1C(=O)N[C@@H](CO)C(N)=O [6Y, 27I, C(17-24)-C20L5A, YAibEGT-YTSDY-SIYLD-KXAAAib-EFVXW-LIAGG-PSSGA-PPPS-NH2 (where each X is C) (SEQ ID NO: 59)] (H-Y[Aib]EGTYTSDYSIYLDKCAA[Aib]EFVCWLIAGGPSSGAPPPS-NH2; linker 17-24 via X2)
Human GIPR; [2]
  EC50: 0.26 nM

## CC[C@H](C)[C@H](NC(=O)[C@H](CC(C)C)NC(=O)[C@H](Cc1c[nH]c2ccccc12)NC(=O)[C@H](CC(N)=O)NC(=O)[C@@H](NC(=O)[C@H](Cc1ccccc1)NC(=O)[C@@H]1CSCC(=O)NCCN(C(=O)CCC(=O)NCCOCCOCCC(=O)NCCOCCOCCC(=O)NCCCC[C@H](NC(=O)CCCCCCCCCCCCCCCCC(=O)O)C(=O)O)CCNC(=O)CSC[C@H](NC(=O)[C@H](Cc2ccc(O)cc2)NC(=O)[C@@H](NC(=O)[C@H](CO)NC(=O)[C@H](Cc2ccc(O)cc2)NC(=O)[C@H](CC(=O)O)NC(=O)[C@H](CO)NC(=O)[C@@H](NC(=O)[C@H](Cc2ccccc2)NC(=O)[C@@H](NC(=O)CNC(=O)[C@H](CCC(=O)O)NC(=O)C(C)(C)NC(=O)[C@@H](N)Cc2ccc(O)cc2)[C@@H](C)O)[C@@H](C)O)[C@@H](C)CC)C(=O)N[C@@H](CC(=O)O)C(=O)N[C@@H](CCCCN)C(=O)N[C@@H](CCC(N)=O)C(=O)N[C@@H](C)C(=O)N[C@@H](C)C(=O)NC(C)(C)C(=O)N1)C(C)C)C(=O)N[C@@H](C)C(=O)NCC(=O)NCC(=O)N1CCC[C@H]1C(=O)N[C@@H](CO)C(=O)N[C@@H](CO)C(=O)NCC(=O)N[C@@H](C)C(=O)N1CCC[C@H]1C(=O)N1CCC[C@H]1C(=O)N1CCC[C@H]1C(=O)N[C@@H](CO)C(N)=O [mCMZ370, YAibEGT-FTSDY-SIYXD-KQAAAib-XFVNW-LIAGG-PSSGA-PPPS-NH2 (where each X is C) (SEQ ID NO: 52)]
[1]; CD-1, mouse, plasma, iv, 1 mg/kg, AUC0_24, Table 15, I.V. 1 mg/kg
  AUC: 121000 ng·h/mL
[1]; CD-1, mouse, plasma, iv, 1 mg/kg, AUC last, Table 15, I.V. 1 mg/kg
  AUC(0-t): 148000 ng·h/mL
[1]; CD-1, mouse, plasma, iv, 1 mg/kg, Table 15, I.V. 1 mg/kg
  AUC(0-inf): 149000 ng·h/mL
[1]; CD-1, mouse, plasma, iv, 1 mg/kg, C0, Table 15, I.V. 1 mg/kg
  C0: 15200 ng/mL
[1]; CD-1, mouse, plasma, iv, 1 mg/kg, Cmax, Table 15, I.V. 1 mg/kg
  Cmax: 14600 ng/mL
[1]; CD-1, mouse, plasma, iv, 1 mg/kg, Tmax, Table 15, I.V. 1 mg/kg
  Tmax: 0.08 h
[1]; CD-1, mouse, plasma, iv, 1 mg/kg, Vss_pred, Table 15, I.V. 1 mg/kg
  Vd: 0.098 L/kg
[1]; CD-1, mouse, plasma, iv, 1 mg/kg, Vz_pred, Table 15, I.V. 1 mg/kg
  Vd: 0.085 L/kg
[1]; CD-1, mouse, plasma, iv, 1 mg/kg, t1/2, Table 15, I.V. 1 mg/kg
  half-life: 8.82 h
[1]; CD-1, mouse, plasma, sc, 1 mg/kg, AUC0_24, CD-1 mouse, S.C.
  AUC: 41900 ng·h/mL
[1]; CD-1, mouse, plasma, sc, 1 mg/kg, S.C.
  AUC(0-inf): 53500 ng·h/mL
[1]; CD-1, mouse, plasma, sc, 1 mg/kg, AUCall, S.C.
  AUC: 53300 ng·h/mL
[1]; CD-1, mouse, plasma, sc, 1 mg/kg, Cl_Fpred, S.C.
  CL/F: 0.24 mL/min/kg
[1]; CD-1, mouse, plasma, sc, 1 mg/kg, Cmax, S.C.
  Cmax: 2460 ng/mL
[1]; CD-1, mouse, plasma, sc, 1 mg/kg, t1/2, CD-1 mouse, S.C.
  half-life: 7.5 h
[1]; CD-1 mouse, S.C., 1 mg/kg
  AUC0_24: 44691 ng·h/mL and 63474 ng·h/mL
  AUCINF_pred: 68240 ng·h/mL and 80676 ng·h/mL
  AUC_% Extrap_pred: 0.26% and 0.31% and 0.19%
  AUCall: 68029 ng·h/mL and 80522 ng·h/mL
  AUMC_% Extrap_pred: 1.32% and 1.23% and 0.99%
  Cl_Fpred: 0.06 mL/min/kg
  Cmax: 2221 ng/mL and 3993 ng/mL
  MRTINF_pred: 20.64 h and 15.82 h
  MRTlast: 20.45 h and 15.69 h
  Tlast: 72 h
  Tmax: 7 h and 24 h and 3 h
  V_F_pred: 0.2 L/kg and 0.15 L/kg and 0.13 L/kg
  t1/2: 7.06 h and 7.05 h
[1]; Table 15, I.V. 1 mg/kg
  Tlast: 72 h
[1]; [3]
  AUC0_24: 107856 ng·h/mL and 85158 ng·h/mL
  AUC last: 127615 ng·h/mL and 102411 ng·h/mL
  AUCINF_pred: 128099 ng·h/mL and 103033 ng·h/mL
  AUC_% Extrap_pred: 0.39% and 0.38% and 0.6%
  AUMC_% Extrap_pred: 2.24% and 2.36% and 3.79%
  C0: 8380 ng/mL and 10006 ng/mL
  Cmax: 8230 ng/mL and 9829 ng/mL
  MRTINF_pred: 13.56 h and 13.74 h
  MRTlast: 13.29 h and 13.3 h
  Vss_pred: 0.106 L/kg and 0.133 L/kg
  Vz_pred: 0.099 L/kg and 0.138 L/kg
  t1/2: 9.87 h
[1]; [4]
  MRT inf: 14.6 h
  MRT last: 14.3 h
[1]; sc, 1 mg/kg, CD-1 mouse, S.C.
  MRT inf: 16.2 h
  MRT last: 16.1 h

Source: patent US12329823B2 (The Scripps Research Institute, priority 2021, dated 2025)
